1 molecule from publication PMC5789026, “mRNA Processing Factor CstF-50 and Ubiquitin Escort Factor p97 Are BRCA1/BARD1 Cofactors Involved in Chromatin Remodeling during the DNA Damage Response” (Molecular and Cellular Biology, 2017) can be followed below.

The target in assay [1] is T1, ΔBRCA1/BARD1-wt heterodimeric complex (truncated BRCA1 residues 1 to 304 and full-length BARD1) (UniProt P38398 1-304; Q99728 1-777).
T1 construct: truncated BRCA1 spanning the RING domain, residues 1 to 304; full-length BARD1, wild type; also called BRCA1/BARD1 heterodimer
T1 sequence (P38398 1-304, stated change not applied, chain 1 of 2): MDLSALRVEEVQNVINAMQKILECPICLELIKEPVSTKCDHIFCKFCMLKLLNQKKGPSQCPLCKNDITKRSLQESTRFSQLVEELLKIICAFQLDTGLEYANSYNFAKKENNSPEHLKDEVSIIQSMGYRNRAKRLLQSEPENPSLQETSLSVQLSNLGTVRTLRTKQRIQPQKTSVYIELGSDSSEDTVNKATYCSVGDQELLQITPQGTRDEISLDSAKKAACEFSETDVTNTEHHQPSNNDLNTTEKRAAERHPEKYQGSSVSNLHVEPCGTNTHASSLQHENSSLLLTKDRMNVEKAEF
T1 sequence (Q99728 whole entry, stated change not applied, chain 2 of 2, the tested form may be a part): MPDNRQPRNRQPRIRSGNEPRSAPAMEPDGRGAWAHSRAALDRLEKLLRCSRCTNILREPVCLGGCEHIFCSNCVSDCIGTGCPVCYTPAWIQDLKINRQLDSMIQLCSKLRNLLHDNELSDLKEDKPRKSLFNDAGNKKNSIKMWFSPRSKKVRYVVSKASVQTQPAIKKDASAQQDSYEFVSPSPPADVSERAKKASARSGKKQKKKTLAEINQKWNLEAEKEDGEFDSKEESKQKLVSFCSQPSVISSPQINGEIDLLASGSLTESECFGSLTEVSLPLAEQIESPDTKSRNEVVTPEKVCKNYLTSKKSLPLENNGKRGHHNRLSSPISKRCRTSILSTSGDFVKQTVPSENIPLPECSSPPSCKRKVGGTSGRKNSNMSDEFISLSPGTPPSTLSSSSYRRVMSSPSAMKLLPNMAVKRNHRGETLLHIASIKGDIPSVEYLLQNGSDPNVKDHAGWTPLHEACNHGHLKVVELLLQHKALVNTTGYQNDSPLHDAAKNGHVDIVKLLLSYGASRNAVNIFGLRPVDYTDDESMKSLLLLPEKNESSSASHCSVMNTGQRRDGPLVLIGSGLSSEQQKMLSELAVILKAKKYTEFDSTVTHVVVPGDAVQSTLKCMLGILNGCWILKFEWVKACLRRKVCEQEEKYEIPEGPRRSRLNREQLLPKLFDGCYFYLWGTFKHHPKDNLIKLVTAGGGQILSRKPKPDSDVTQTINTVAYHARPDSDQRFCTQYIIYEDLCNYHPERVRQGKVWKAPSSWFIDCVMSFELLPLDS
The experiment in a line: pull-down; ΔBRCA1/BARD1 (wt or Q564H) incubated with GST-CstF-50 and/or His-p97, immunoprecipitated with anti-BARD1 or preimmune sera; washes with buffer A (PBS, 0.01% Nonidet P-40, 0.04% BSA) including 300 mM NaCl; Western blot. Particulars: both partners purified.

For another assay, the target named is T2, His-Ub (UniProt P0CG48 1-76).
T2 construct: ubiquitin (Ub), the cut product of its precursor; also called ubiquitin; source: E. coli BL21, purified (Ni-agarose)
Put plainly: pull-down; interaction assay with His-Ub and GST-CstF-50 as described previously (ref. 5); pellets and supernatants analysed by immunoblotting under denaturing PAGE. The note with it: both partners purified.

B1: GST-CstF-50 (natural protein, UniProt Q05048 1-431, looked up)
chain: MYRTKVGLKDRQQLYKLIISQLLYDGYISIANGLINEIKPQSVCAPSEQLLHLIKLGMENDDTAVQYAIGRSDTVAPGTGIDLEFDADVQTMSPEASEYETCYVTSHKGPCRVATYSRDGQLIATGSADASIKILDTERMLAKSAMPIEVMMNETAQQNMENHPVIRTLYDHVDEVTCLAFHPTEQILASGSRDYTLKLFDYSKPSAKRAFKYIQEAEMLRSISFHPSGDFILVGTQHPTLRLYDINTFQCFVSCNPQDQHTDAICSVNYNSSANMYVTGSKDGCIKLWDGVSNRCITTFEKAHDGAEVCSAIFSKNSKYILSSGKDSVAKLWEISTGRTLVRYTGAGLSGRQVHRTQAVFNHTEDYVLLPDERTISLCCWDSRTAERRNLLSLGHNNIVRCIVHSPTNPGFMTCSDDFRARFWYRRSTTD
notes: CstF-50 (cleavage stimulation factor 50), recombinant; also called glutathione S-transferase (GST)-CstF-50; source: E. coli BL21, purified (glutathione-agarose)
B1: the binding result (in assay [1]; with His-Ub) was “binds” each time.
